US5593867, “Fluorerscence polarization detection of nucleic acid amplication” (Becton, Dickinson and Company)

Columns and labels:
EcoRI (Gln 111) = EcoRI (Gln 111) (UniProt P00642 P00642:2-277, Gln111 (cleavage-deficient; parent residue not stated)); assay: FP; no enhancement of FP change without recognition site; EDTA buffer, 37 C; conditions: chain copies: 2
EcoRI = EcoRI (UniProt P00642 P00642:2-277); assay: as above; conditions: tags: New England BioLabs; chain copies: 2

B1: SEQ7/SEQ9 duplex lacking EcoRI site (dsDNA)
DNA 1: ATCCGTATGGTGGATAACGTCTTTCA
DNA 2: TGAAAGACGTTATCCACCATACGGAT
- binding result (EcoRI (Gln 111)): no binding
- binding result (EcoRI): no binding
